The values that follow come from US20260151519A1 (AKTIS ONCOLOGY, published 2026).

Bridges are numbered along the chain shown (N, C = ends). Primed or numbered codes have the meaning given here. Where no end group is shown, it is not given here. [ ]: non-standard residue; d: D form. The star is where a group is joined. DOTA = O=C(O)CN1CCN(CC(=O)O)CCN(CC(=O)*)CCN(CC(=O)O)CC1; Biotin = O=C1N[C@H]2[C@H](CS[C@H]2CCCCC(=O)*)N1; hydroxy‑norleucine = hydroxy-norleucine residue; Lys(Me3) = C[N+](C)(C)CCCC[C@H](N)C(=O)O; Arg(Me2s) = CN=C(NC)NCCC[C@H](N)C(=O)O; Cit = NC(=O)NCCC[C@H](N)C(=O)O; PEG4″ = 4(ethylene glycol); Nle = CCCC[C@H](N)C(=O)O

Assay [1] addresses T1, Human Nectin-4 expressed on cells (human, UniProt Q96NY8 32-510).
T1 construct: Endogenous on HT-1376 cells; also called endogenous Nectin-4 on HT-1376 cells; cell surface Nectin-4
T1 sequence: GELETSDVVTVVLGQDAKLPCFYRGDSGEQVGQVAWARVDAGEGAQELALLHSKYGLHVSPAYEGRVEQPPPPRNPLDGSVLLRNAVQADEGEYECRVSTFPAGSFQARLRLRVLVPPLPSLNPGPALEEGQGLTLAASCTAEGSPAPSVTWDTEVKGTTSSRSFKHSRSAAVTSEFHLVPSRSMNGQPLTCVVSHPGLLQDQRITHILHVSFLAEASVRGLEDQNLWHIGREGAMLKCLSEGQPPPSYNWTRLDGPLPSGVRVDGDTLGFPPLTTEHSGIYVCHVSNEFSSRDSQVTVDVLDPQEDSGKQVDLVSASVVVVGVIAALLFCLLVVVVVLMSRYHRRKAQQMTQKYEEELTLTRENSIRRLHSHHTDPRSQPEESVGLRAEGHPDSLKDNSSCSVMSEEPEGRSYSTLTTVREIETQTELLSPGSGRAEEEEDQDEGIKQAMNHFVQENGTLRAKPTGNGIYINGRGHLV
The assay is described as follows: radioligand binding, 177Lu-labelled compound, HT-1376 cells. The protocol: On the day of assay, culture medium was removed and PBS was added to cells. Association kinetics were measured at three concentrations of radioligand, and this was performed by the addition of lutetium-177 radioconjugates to cells at various time points from 1 to 60 minutes.

Assay [2] concerns the target T1, Human Nectin-4 expressed on cells. The assay is described as follows: DELFIA whole-cell competition against a europium-chelate miniprotein. Here is the method:
A whole cell binding assay was used to estimate the equilibrium binding affinity (KD) or binding inhibition constant (Kᵢ) of miniprotein ligands to cells expressing a target of interest. Cells were dispensed into a 384-well plate and incubated at 37° C. in 5% CO₂ overnight. The next day cells were gently washed once in assay buffer prior to addition of europium chelated ligand. […] For Kᵢ determination, a single concentration (KD equivalent concentration) of europium-chelate miniprotein was added to each well followed immediately by the addition of unconjugated competing ligand over 12 different concentrations ranging from 100 times below and above expected Kᵢ values as before. […] Cells were then washed three times at room temperature with 1×PBS followed by the addition of 2 M HCl and incubated for two h at 37° C. Following this step, 2 M NaOH and fluorescent inducer solution were added to each well and incubated for 30 minutes at room temperature according to the manufacturer's protocol (Perkin-ELMER DELFIA assay). Plates were read on an Envision plate reader and a curve-fitting model was applied to estimate KD and Kᵢ values using GraphPad Prism software.

Assay [3] concerns the target T2, Human Nectin-4 (human, UniProt Q96NY8 32-349, limits assumed).
T2 construct: Protein immobilised on the SPR chip; also called target protein
T2 sequence: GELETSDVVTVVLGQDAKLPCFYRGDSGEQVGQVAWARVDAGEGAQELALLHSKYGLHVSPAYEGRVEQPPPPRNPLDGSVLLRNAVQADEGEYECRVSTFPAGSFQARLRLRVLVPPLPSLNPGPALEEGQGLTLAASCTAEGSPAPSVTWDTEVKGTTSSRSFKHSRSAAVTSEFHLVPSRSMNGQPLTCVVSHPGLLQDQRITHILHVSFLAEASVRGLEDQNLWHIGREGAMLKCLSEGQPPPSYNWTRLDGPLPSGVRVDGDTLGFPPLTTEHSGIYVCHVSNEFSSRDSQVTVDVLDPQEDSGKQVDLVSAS
The assay is described as follows: SPR, Biacore T200, target immobilised, 1:1 model. The protocol:
Surface plasmon resonance (SPR) analyses were performed using Biacore T200 (GE Healthcare). Target protein (“ligand”) was immobilized to a CM5 Series S sensor chip (Cytiva) using amine-coupling chemistry. Running buffer was 0.05% surfactant P20 in HEPES buffered saline (HBS-P), pH 7.4 (Cytiva). Immobilization was performed at 25° C. Carboxyl groups in each flow cell were activated using a 1:1 mixture of 0.4 M 1-ethyl-3-(3-dimethylaminopropyl)-carbodiimide in water (EDC) and 0.1 M N-hydroxysuccinimide in water (NHS) for 7 minutes. The ligand was prepared in 10 mM sodium acetate pH 5 (Cytiva). Pulsatile injections were made to target a specific immobilization level. Any remaining amine-reactive esters on the chip surface were blocked with a 7-minute injection of 1 M ethanolamine, pH 8.5. Three 10-second pulses of 50 mM sodium hydroxide were then made to remove any unbound ligand. Reference cells were modified using amine coupling chemistry, omitting ligand injection.
Increase in signal (RU) is proportional to an increase in binding events between the analyte and ligand surface. The injection was then stopped, and dissociation was measured. […] Measured association (kₐ, 1/Ms⁻¹) and dissociation (kd, s⁻¹) were fit to a 1:1 binding model to calculate a dissociation equilibrium constant, KD(M) for each analyte.
In general terms: In SPR one partner is held on a chip, and binding of the other changes the refractive index at the surface.

The target in assay [4] is T2, Human Nectin-4. The assay is described as follows: Table 2B (DELFIA or SPR).

Turning to {DOTA-PEG4″}-CEYDEEFFTALKRLRGGDICYYIQASFQYLPGLCIEEILDNLGCS (designed binder, disulfide 1-34, 20-44; also: 177Lu-labelled in radioligand assay) [C109], binding in assay [1] was characterised by a dissociation constant (Kd) of 8.72 nM. This lies in the single-digit nanomolar range.

{Biotin-PEG4″}-CEYDEQFFTALARLRGADICEYIQARFQYLPGLCIEEILDNLGCS-OH (designed binder, disulfide 1-34, 20-44) [C280]: in assay [2], the affinity, expressed as Ki, was 0.54 nM.

With {Biotin-PEG4″}-CDYDEQFFTALKRLRGGDICEYIQA[Lys(Me3)]FQYLPGECIEEILDNLGCS-OH (designed binder, disulfide 1-34, 20-44) [C255], in assay [2], the Ki (in general, the dissociation constant of the complex between target and ligand, obtained from inhibition or displacement) was 0.66 nM.

In assay [2], {Biotin-PEG4″}-CDYDEQFFTALKRLRGADICEYIQA[Lys(Me3)]FQYLPGECIEEILDNLGCS-OH (designed binder, disulfide 1-34, 20-44) [C257] displayed an inhibitory constant (Ki) of 0.66 nM. This counts as sub-nanomolar.

The molecule {Biotin-PEG4″}-CEYDEQFFTALARLRGADICEYIQA[Lys(Me3)]FQYLPGLCIEEILDNLGCS-OH (designed binder, disulfide 1-34, 20-44) [C262] registered a Ki in assay [2] of 1.04 nM.

As for {Biotin-PEG4″}-CEYDEQFFTALARLRGGDICEYIQA[Arg(Me2s)]FQYLPGLCIEEILDNLGCS (designed binder, disulfide 1-34, 20-44) [C267], the affinity in assay [2], expressed as Ki, was 0.76 nM. In addition, the Kd (commonly the free concentration of one partner at which half of the binding sites on the other are occupied at equilibrium, for simple one-to-one binding) with Human Nectin-4 [3] came to 0.586 nM.

As for {DOTA-PEG4″}-CEYDEEFFTALKRLRGGDICYYIQAKFQYLPKLCIEEILDNLGCS (designed binder, disulfide 1-34, 20-44; also: 177Lu-labelled in the radioligand assay) [C117], the Kd in assay [1] was 2.64 nM.

On to {Biotin-PEG4″}-CEYDEQFFTALARLRGGDICEYIQARFQYLPGLCIEEILDNLGCS (designed binder, disulfide 1-34, 20-44) [C264], for which, in assay [2], the affinity, expressed as Ki, was 0.53 nM. Besides, the dissociation constant Kd with Human Nectin-4 [3] was determined as 0.476 nM.

{Biotin-PEG4″}-CEYDEEFFTALARLRGADICQYIQA[Lys(Me3)]FQYLPALCIEEILDNLGCS-OH (designed binder, disulfide 1-34, 20-44) [C252] yielded a Ki in assay [2] of 0.76 nM.

For Ac-CEYDEQFFTALSSLRGGDICYYIQEQFANVPGICIEEILDNLGC (designed binder, disulfide 1-34, 20-44) [C136], the Kd with Human Nectin-4 [4] was 36.5 nM.

Consider {Biotin-PEG4″}-CEYDEEFFTALA[Cit]LRGDDICSYIQA[hydroxy‑norleucine]FQYLPGLCIEEILDNLGCS-OH (designed binder, disulfide 1-34, 20-44) [C170], for which binding with Human Nectin-4 [4] was put at a Kd of 8.8 nM.

Take Ac-CEYDEQFFTALKRLRGGDICYYISAQFNTLPDLCIEEILENLGC-OH (designed binder, disulfide 1-34, 20-44) [C100]: binding with Human Nectin-4 [4] was put at a Kd of 4.8 nM. Against the preceding molecule, the Kd is about 1.8-fold lower.

For {Biotin-PEG4″}-CEYDEEFFTALKKLRGGDICYYIQQAFNYLPGICIEEILDNLGC (designed binder, disulfide 1-34, 20-44) [C107], in the assay with Human Nectin-4 [4], the affinity, expressed as Kd, was 3.38 nM.

In turn, Ac-CEYDEQFFTALKALRGGDICYYIQASFNYLPDLCIEEILDNLGC-NH2 (designed binder, disulfide 1-34, 20-44) [C112] showed a Kd with Human Nectin-4 [4] of 6.24 nM.

Regarding Ac-CEYDEEFFTALKKLRGGDICYYIQQAFNYLPGICIEEILDNLGC-OH (designed binder, disulfide 1-34, 20-44) [C104], binding with Human Nectin-4 [4] was characterised by a dissociation constant (Kd) of 3.7 nM. This Kd is about 1.7-fold lower than that of the molecule before.

The molecule Ac-CEYDEEFFTALSRLRGGDICYYIQQAFQYLPGLCIEEILDNLGC-NH2 (designed binder, disulfide 1-34, 20-44) [C132] returned a dissociation constant Kd with Human Nectin-4 [4] of 30.1 nM. Compared with the last molecule, the Kd is about 8.1-fold higher.

With {Biotin-PEG4″}-CEYDEEFFTALARLRGGDICYYIQA[hydroxy‑norleucine]FQYLPGLCIEEILDNLGCS-OH (designed binder, disulfide 1-34, 20-44) [C173], the Kd with Human Nectin-4 [4] is 5 nM.

As to {Biotin-PEG4″}-CEYDEEFFTALARLRGDDICSYIQAKFQYLPGLCIEEILDNLGCS-OH (designed binder, disulfide 1-34, 20-44) [C143], the Kd with Human Nectin-4 [4] worked out at 0.55 nM; with Human Nectin-4 [3] it was 0.238 nM.

In the case of {Biotin-PEG4″}-CEYDEQFFTALKRLRGADICSYIQASFQYLPGLCIEEILDNLGCS (designed binder, disulfide 1-34, 20-44) [C185], the Kd came out at 1 nM in the assay with Human Nectin-4 [4] and 0.371 nM in the assay with Human Nectin-4 [3].

{Biotin-PEG4″}-CEYDEEFFTALARLRGGDICQYIQAKFQYLPGQCIEEILDNLGCS (designed binder, disulfide 1-34, 20-44) [C149]: the dissociation constant (Kd) with Human Nectin-4 [4] came to 0.75 nM; in the assay with Human Nectin-4 [3] it was 0.297 nM.

The molecule {Biotin-PEG4″}-CEYDEEFFTALKRLRGGDICEYIQA[Nle]FQYLPGLCIEEILDNLGCS-OH (designed binder, disulfide 1-34, 20-44) [C199] displayed a Kd with Human Nectin-4 [4] of 3.5 nM.

As to {Biotin-PEG4″}-CEYDEQFFTALKRLRGGDICYYISAQFNTLPDLCIEEILENLGC-OH (designed binder, disulfide 1-34, 20-44) [C103], the Kd with Human Nectin-4 [4] was found to be 6.6 nM.

{Biotin-PEG4″}-CDYDEQFFTALA[Cit]LRGGDICEYIQA[Lys(Me3)]FQYLPGLCIEEILDNLGCS-OH (designed binder, disulfide 1-34, 20-44) [C259] registered a Kd with Human Nectin-4 [3] of 0.226 nM.

In turn, {Biotin-PEG4″}-CEYDEQFFTALARLRGGDICYYIQEQFATVPGLCIEEILDQLGCS-OH (designed binder, disulfide 1-34, 20-44) [C131] returned a Kd in the assay with Human Nectin-4 [4] of 12.4 nM.

In turn, {Biotin-PEG4″}-CEYDEQFFTALSSLRGGDICYYIQEQFANVPGICIEEILDNLGCS (designed binder, disulfide 1-34, 20-44) [C139] returned a Kd with Human Nectin-4 [4] of 25.2 nM.

Take Ac-CEYDEQFFTALARLRGGDICYYIQEQFATVPGLCIEEILDQLGC-NH2 (designed binder, disulfide 1-34, 20-44) [C128]: in the assay with Human Nectin-4 [4], the dissociation constant (Kd) was determined as 10.1 nM.
